In US20080235826:

Legend:
[1] = biological target: T1, purified oat phytochrome A, autophosphorylated (UniProt P06593)
T1 sequence: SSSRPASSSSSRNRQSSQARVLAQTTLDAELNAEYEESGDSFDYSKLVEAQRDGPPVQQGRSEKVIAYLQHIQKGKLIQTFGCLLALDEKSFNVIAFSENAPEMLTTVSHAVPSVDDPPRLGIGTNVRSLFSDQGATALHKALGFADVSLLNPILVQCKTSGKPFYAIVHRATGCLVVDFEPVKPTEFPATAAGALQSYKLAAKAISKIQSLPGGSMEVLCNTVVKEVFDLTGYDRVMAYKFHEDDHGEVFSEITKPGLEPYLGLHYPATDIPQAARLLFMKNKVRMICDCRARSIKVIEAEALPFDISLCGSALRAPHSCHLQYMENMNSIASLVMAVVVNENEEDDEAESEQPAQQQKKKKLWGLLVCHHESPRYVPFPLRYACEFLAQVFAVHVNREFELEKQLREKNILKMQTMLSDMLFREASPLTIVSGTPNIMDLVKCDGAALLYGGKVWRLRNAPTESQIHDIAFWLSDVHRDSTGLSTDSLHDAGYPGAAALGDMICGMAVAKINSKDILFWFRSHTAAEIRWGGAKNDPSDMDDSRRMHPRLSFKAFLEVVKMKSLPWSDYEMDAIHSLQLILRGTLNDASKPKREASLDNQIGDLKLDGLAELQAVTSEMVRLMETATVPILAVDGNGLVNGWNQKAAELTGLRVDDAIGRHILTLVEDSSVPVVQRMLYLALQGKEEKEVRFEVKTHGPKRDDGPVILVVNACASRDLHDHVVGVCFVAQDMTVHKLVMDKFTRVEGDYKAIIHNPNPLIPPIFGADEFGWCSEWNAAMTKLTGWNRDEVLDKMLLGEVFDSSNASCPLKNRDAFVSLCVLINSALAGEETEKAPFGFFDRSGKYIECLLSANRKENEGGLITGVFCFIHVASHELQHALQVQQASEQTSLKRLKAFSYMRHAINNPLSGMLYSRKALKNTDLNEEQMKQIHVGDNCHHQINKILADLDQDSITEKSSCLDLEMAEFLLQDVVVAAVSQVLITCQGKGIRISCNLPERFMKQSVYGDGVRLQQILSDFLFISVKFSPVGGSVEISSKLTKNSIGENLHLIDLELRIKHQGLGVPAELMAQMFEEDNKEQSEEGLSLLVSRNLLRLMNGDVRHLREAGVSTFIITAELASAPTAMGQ

[2] = biological target: Arabidopsis thaliana phytochrome B (PHYB), full-length, yeast two-hybrid bait in pGilda, P14713
[3] = biological target: T2, Arabidopsis thaliana phytochrome A (PHYA), full-length, yeast two-hybrid fusion
T2 chain: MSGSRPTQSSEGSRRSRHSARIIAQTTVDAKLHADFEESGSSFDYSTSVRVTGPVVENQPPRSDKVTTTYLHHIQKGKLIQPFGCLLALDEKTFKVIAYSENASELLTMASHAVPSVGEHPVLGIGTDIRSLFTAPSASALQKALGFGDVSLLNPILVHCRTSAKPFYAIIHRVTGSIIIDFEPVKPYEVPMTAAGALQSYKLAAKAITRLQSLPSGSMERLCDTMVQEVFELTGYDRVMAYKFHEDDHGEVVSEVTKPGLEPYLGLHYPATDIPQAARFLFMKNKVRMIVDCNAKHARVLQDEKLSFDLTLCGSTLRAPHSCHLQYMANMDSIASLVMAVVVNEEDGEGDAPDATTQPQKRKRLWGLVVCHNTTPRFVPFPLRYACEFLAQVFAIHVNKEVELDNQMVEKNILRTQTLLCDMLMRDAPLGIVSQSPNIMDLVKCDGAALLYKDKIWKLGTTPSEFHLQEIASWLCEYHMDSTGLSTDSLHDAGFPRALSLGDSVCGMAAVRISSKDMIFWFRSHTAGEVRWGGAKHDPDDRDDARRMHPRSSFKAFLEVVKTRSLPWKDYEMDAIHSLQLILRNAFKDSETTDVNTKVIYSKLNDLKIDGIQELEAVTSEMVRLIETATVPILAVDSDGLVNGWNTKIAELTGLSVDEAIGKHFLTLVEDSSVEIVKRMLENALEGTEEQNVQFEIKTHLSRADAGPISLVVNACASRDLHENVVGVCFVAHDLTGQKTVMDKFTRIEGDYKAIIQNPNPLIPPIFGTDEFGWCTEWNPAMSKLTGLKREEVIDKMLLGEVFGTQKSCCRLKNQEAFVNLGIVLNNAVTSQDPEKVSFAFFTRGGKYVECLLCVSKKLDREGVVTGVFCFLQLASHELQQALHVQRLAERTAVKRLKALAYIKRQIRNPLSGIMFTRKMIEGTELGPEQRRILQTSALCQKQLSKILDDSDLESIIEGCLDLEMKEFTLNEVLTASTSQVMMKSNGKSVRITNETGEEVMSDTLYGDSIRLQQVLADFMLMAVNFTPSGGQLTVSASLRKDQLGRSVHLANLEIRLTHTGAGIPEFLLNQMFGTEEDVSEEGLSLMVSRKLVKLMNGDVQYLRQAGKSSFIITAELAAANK

[4] = biological target: T3, purified oat phytochrome A, autophosphorylated, P06593
T3 chain: T1 sequence

Arabidopsis thaliana phytochrome B (PHYB), full-length, yeast two-hybrid bait in pGilda, P14713, sequence (P14713 whole entry, the tested form may be a part): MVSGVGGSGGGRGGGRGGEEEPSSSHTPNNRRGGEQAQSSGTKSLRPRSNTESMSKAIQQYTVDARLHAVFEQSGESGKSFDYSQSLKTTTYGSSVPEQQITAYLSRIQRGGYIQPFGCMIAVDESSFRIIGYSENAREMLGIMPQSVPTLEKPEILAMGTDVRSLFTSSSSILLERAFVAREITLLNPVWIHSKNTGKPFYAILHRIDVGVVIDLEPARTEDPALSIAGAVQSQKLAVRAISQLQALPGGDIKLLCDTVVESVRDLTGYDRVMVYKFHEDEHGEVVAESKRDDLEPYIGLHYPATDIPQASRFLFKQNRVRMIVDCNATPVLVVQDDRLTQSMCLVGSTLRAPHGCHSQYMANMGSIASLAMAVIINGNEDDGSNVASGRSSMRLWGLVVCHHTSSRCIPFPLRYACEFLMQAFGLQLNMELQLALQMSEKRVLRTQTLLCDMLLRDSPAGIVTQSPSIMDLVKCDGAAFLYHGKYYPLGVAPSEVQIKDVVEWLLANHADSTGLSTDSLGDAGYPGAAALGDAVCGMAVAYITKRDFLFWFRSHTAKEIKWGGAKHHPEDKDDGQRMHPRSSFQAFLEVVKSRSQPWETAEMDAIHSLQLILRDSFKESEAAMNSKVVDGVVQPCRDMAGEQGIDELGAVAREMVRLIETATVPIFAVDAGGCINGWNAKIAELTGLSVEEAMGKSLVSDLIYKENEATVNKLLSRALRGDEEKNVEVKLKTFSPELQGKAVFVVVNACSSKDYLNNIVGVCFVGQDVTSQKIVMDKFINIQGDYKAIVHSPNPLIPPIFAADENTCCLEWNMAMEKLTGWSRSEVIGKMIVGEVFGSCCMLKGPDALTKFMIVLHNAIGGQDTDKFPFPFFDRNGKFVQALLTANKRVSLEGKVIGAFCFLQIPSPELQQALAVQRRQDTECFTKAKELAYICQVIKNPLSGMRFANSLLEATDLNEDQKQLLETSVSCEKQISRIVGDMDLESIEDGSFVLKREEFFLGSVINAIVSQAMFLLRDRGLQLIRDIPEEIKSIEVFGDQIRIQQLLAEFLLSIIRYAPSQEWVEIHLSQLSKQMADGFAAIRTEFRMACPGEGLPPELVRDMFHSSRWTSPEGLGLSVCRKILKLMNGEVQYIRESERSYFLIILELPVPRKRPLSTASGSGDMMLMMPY

In the case of “GST-PP2Ac (fusion protein of GST and the PP2A catalytic domain of PAPP5, with a deletion of amino acids 1-138 of SEQ ID NO: 4)”, the “dephosphorylation of autophosphorylated oat Pfr phytochrome A (32P autoradiography)” value [1] is reported as “the level of dephosphorylation was very low”.

B1: B42-PP2Ac (TPR domain-deleted PP2A catalytic domain of PAPP5, yeast two-hybrid prey) (protein)
chain: VPVSERRSVAESIDFHTIEVEPQYSGARIEGEEVTLDFVKTMMEDFKNQKTLHKRYAYQIVLQTRQILLALPSLVDISVPHGKHITVCGDVHGQFYDLLNIFELNGLPSEENPYLFNGDFVDRGSFSVEIILTLFAFKCMCPSSIYLARGNHESKSMNKIYGFEGEVRSKLSEKFVDLFAEVFCYLPLAHVINGKVFVVHGGLFSVDGVKLSDIRAIDRFCEPPEEGLMCELLWSDPQPLPGRGPSKRGVGLSFGGDVTKRFLQDNNLDLLVRSHEVKDEGYEVEHDGKLITVFSAPNYCDQMGNKGAFIRFEAPDMKPNIVTFSAVPHPDVKPMAYANNFLRMFN
For B1, the “beta-galactosidase activity in Miller units (quantitative yeast two-hybrid)” value [2] was “showed a remarkable reduction in the activity of interaction with phytochromes” and the “beta-galactosidase activity in Miller units (quantitative yeast two-hybrid)” value [3] was “showed a remarkable reduction in the activity of interaction with phytochromes”.

B2: GST-PAPP5 fusion protein (glutathione-S-transferase fused to full-length PAPP5) (protein)
chain: METKNENSDVSRAEEFKSQANEAFKGHKYSSAIDLYTKAIELNSNNAVYWANRAFAHTKLEEYGSAIQDASKAIEVDSRYSKGYYRRGAAYLAMGKFKDALKDFQQVKRLSPNDPDATRKLKECEKAVMKLKFEEAISVPVSERRSVAESIDFHTIEVEPQYSGARIEGEEVTLDFVKTMMEDFKNQKTLHKRYAYQIVLQTRQILLALPSLVDISVPHGKHITVCGDVHGQFYDLLNIFELNGLPSEENPYLFNGDFVDRGSFSVEIILTLFAFKCMCPSSIYLARGNHESKSMNKIYGFEGEVRSKLSEKFVDLFAEVFCYLPLAHVINGKVFVVHGGLFSVDGVKLSDIRAIDRFCEPPEEGLMCELLWSDPQPLPGRGPSKRGVGLSFGGDVTKRFLQDNNLDLLVRSHEVKDEGYEVEHDGKLITVFSAPNYCDQMGNKGAFIRFEAPDMKPNIVTFSAVPHPDVKPMAYANNFLRMFN
For B2, the “dephosphorylation of autophosphorylated oat Pfr phytochrome A (32P autoradiography)” value [4] was “only GST-PAPP5 dephosphorylated the autophosphorylated oat Pfr phytochrome A by about 80%” and the “dephosphorylation of autophosphorylated oat phytochrome A according to its light absorption form” value [4] was “the dephosphorylation by PAPP5 was higher in Pfr phytochrome than that in Pf phytochrome”.
